What all share (details): both partners purified
The target in experiment [1] is T1, c-di-GMP phosphodiesterase ProE (Pseudomonas aeruginosa, UniProt Q9HTQ9 1-558).
T1 construct: ProE, c-di-GMP phosphodiesterase of Pseudomonas aeruginosa PAO1; also called PDE ProE
T1 sequence: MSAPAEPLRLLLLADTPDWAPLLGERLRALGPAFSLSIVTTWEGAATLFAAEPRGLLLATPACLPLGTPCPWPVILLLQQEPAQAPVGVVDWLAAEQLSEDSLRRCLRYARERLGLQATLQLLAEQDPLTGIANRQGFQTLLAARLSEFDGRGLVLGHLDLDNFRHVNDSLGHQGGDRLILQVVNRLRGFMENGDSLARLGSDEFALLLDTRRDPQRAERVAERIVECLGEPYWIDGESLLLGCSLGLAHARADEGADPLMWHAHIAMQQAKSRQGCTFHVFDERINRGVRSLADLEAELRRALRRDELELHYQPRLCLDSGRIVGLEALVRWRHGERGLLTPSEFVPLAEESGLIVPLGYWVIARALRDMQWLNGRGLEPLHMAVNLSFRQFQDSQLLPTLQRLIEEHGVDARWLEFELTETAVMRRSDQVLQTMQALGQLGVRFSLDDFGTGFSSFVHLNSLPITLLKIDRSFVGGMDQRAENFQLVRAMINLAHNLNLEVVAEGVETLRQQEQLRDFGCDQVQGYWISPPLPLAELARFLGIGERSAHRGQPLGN
Briefly: SPR; Biacore T200, 25°C, PBST pH 7.4; PqsE amine-coupled on CM5 chip (8,000 RU), ProE injected; 1:1 Langmuir or steady-state affinity model.

Experiment [2] has as its target T1, c-di-GMP phosphodiesterase ProE. Kind of experiment: SPR; Biacore T200, 25°C, PBST pH 7.4; PqsE amine-coupled on CM5 chip, ProE injected with 100 µM c-di-GMP. (In general: In SPR one partner is held on a chip, and binding of the other changes the refractive index at the surface.)
The target is the same in experiment [3]. Briefly: ITC; MicroCal VP-ITC, 25°C; ProE (printed 'Thirty micrometers') in the cell titrated with 300 µM PqsE; PBS with 5 mM β-mercaptoethanol; single set of identical sites model.
For experiment [4] the target is unchanged. Briefly: SPR; Biacore T200, 25°C, PBST pH 7.4; PqsE amine-coupled on CM5 chip, ProE injected with 10 mM Mg2+.

The values below come from paper PMC11852716, “c-di-GMP phosphodiesterase ProE interacts with quorum sensing protein PqsE to promote pyocyanin production in Pseudomonas aeruginosa” (mSphere, 2025).

The Kd is the constant that tells how readily two partners part at equilibrium. A higher Kd goes with lower affinity.

B1: PQS quorum sensing protein PqsE (natural protein)
chain: MLRLSAPGQLDDDLCLLGDVQVPVFLLRLGEASWALVEGGISRDAELVWADLCRWVADPSQVHYWLITHKHYDHCGLLPYLCPRLPNVQVLASERTCQAWKSESAVRVVERLNRQLLRAEQRLPEACAWDALPVRAVADGEWLELGPRHRLQVIEAHGHSDDHVVFYDVRRRRLFCGDALGEFDEAEGVWRPLVFDDMEAYLESLERLQRLPTLLQLIPGHGGLLRGRLAADGAESAYTECLRLCRRLLWRQSMGESLDELSEELHRAWGGQSVDFLPGELHLGSMRRMLEILSRQALPLD
notes: PqsE of the PQS quorum sensing system, Pseudomonas aeruginosa PAO1; DNA fragment encoding pqsE cloned into pET28b(+); source: E. coli BL21(DE3), pET28b(+), purified (Ni-NTA)
B1: the equilibrium dissociation constant (Kd) in experiment [1] came out at 3210 nM; in experiment [2] it was 2210 nM; in experiment [3] it was 5460 nM; in experiment [4], 2270 nM.
